Biological target: amyloid-β protein (Aβ) produced from human APP770 bearing the Swedish mutation (APPswe) in rat hippocampal neurons (human)
Assay: SDS-PAGE with western blot

Substance “amyloid-β protein (Aβ) produced from human APP770 bearing the Swedish mutation (APPswe) in rat hippocampal neurons (peptide)” has a stoichiometry N of 3.
